{"source": "paper PMC10115415", "about": "“RNA binding induces an allosteric switch in Cyp33 to repress MLL1-mediated transcription”", "settings_in_all_cases": "protein: recombinant; tags: AGH N-terminal after intein cleavage", "key": {"[1]": {"molecular_target": "T1, Cyp33 RRM (human, UniProt Q9UNP9 1-114)", "T1 sequence (Q9UNP9 1-114)": "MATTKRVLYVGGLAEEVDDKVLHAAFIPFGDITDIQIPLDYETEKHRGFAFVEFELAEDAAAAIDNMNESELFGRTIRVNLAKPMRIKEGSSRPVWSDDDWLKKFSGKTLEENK", "test": "NMR titration; NMR titrations: 20 mM KHPO4 pH 7, 40 mM KCl, 1 mM DTT, 289.15 K as printed (table S2 says 298.15 K for Kd); structures of complexes: 40 mM KCl, 20 mM KH2PO4 pH"}, "[2]": {"molecular_target": "Cyp33-RK (RRM) (human, UniProt Q9UNP9 1-114, R86A;K88A)", "sequence (Q9UNP9 1-114 R86A/K88A)": "as the sequence (Q9UNP9 1-114) above, with R86A, K88A counted along it", "test": "NMR titration; NMR titrations: 20 mM KHPO4 pH 7, 40 mM KCl, 1 mM DTT, 289.15 K as printed (table S2 says 298.15 K for Kd); structures of complexes: 40 mM KCl, 20 mM KH2PO4 pH"}, "[3]": {"molecular_target": "Cyp33-K (RRM) (human, UniProt Q9UNP9 1-114, K83A)", "sequence (Q9UNP9 1-114 K83A)": "as the sequence (Q9UNP9 1-114) above, with K83A counted along it", "test": "NMR titration; NMR titrations: 20 mM KHPO4 pH 7, 40 mM KCl, 1 mM DTT, 289.15 K as printed (table S2 says 298.15 K for Kd); structures of complexes: 40 mM KCl, 20 mM KH2PO4 pH"}, "[4]": {"molecular_target": "T1, Cyp33 RRM", "test": "NMR titration; weak, fast exchange; NMR titrations: 20 mM KHPO4 pH 7, 40 mM KCl, 1 mM DTT, 289.15 K as printed (table S2 says 298.15 K for Kd); structures of complexes: 40 mM KCl, 20 mM KH2PO4 pH"}, "[5]": {"molecular_target": "Cyp33 RRMΔα (human, UniProt Q9UNP9 1-90)", "sequence (Q9UNP9 1-90, stated change not applied)": "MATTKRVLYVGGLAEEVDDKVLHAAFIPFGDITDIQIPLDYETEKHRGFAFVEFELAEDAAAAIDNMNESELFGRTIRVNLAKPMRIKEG", "test": "NMR structure and titration; single register, larger shifts than with a3; NMR titrations: 20 mM KHPO4 pH 7, 40 mM KCl, 1 mM DTT, 289.15 K as printed (table S2 says 298.15 K for Kd); structures of complexes: 40 mM KCl, 20 mM KH2PO4 pH"}, "[6]": {"molecular_target": "T1, Cyp33 RRM", "test": "NMR structure and titration; low affinity, multiple registers; NMR titrations: 20 mM KHPO4 pH 7, 40 mM KCl, 1 mM DTT, 289.15 K as printed (table S2 says 298.15 K for Kd); structures of complexes: 40 mM KCl, 20 mM KH2PO4 pH"}}, "data": [{"binder": "UAAUGU (ssRNA)", "note": "[UAAUGU RNA]", "values": [{"measurement": "Kd", "setting": "[1]", "result": "~300", "unit": "µM"}, {"measurement": "Kd", "setting": "[2]", "result": "~2000", "unit": "µM"}, {"measurement": "Kd", "setting": "[3]", "result": "~1800", "unit": "µM"}]}, {"binder": "UAAUGUCG (ssRNA)", "note": "[UAAUGUCG RNA]", "values": [{"measurement": "binding result", "setting": "[4]", "result": "binds"}, {"measurement": "binding result", "setting": "[5]", "result": "binds"}]}, {"binder": "AAUAAA (ssRNA)", "note": "[AAUAAA RNA (poly-A signal)]", "values": [{"measurement": "binding result", "setting": "[6]", "result": "binds"}]}]}
